The values below come from article doi:10.1101/2024.03.20.585881 (bioRxiv, 2024).

One assay deals with 3xFLAG-eGFP-Axin1 (UniProt O15169 1-862). The assay is described as follows: affinity purification with mass spectrometry.
In a further assay the target is 3xFLAG-mScarlet-APC (human (endogenous in HEK293), UniProt P25054 1-2843). The assay is described as follows: affinity purification with mass spectrometry.
Chain of 3xFLAG-mScarlet-APC (P25054 whole entry): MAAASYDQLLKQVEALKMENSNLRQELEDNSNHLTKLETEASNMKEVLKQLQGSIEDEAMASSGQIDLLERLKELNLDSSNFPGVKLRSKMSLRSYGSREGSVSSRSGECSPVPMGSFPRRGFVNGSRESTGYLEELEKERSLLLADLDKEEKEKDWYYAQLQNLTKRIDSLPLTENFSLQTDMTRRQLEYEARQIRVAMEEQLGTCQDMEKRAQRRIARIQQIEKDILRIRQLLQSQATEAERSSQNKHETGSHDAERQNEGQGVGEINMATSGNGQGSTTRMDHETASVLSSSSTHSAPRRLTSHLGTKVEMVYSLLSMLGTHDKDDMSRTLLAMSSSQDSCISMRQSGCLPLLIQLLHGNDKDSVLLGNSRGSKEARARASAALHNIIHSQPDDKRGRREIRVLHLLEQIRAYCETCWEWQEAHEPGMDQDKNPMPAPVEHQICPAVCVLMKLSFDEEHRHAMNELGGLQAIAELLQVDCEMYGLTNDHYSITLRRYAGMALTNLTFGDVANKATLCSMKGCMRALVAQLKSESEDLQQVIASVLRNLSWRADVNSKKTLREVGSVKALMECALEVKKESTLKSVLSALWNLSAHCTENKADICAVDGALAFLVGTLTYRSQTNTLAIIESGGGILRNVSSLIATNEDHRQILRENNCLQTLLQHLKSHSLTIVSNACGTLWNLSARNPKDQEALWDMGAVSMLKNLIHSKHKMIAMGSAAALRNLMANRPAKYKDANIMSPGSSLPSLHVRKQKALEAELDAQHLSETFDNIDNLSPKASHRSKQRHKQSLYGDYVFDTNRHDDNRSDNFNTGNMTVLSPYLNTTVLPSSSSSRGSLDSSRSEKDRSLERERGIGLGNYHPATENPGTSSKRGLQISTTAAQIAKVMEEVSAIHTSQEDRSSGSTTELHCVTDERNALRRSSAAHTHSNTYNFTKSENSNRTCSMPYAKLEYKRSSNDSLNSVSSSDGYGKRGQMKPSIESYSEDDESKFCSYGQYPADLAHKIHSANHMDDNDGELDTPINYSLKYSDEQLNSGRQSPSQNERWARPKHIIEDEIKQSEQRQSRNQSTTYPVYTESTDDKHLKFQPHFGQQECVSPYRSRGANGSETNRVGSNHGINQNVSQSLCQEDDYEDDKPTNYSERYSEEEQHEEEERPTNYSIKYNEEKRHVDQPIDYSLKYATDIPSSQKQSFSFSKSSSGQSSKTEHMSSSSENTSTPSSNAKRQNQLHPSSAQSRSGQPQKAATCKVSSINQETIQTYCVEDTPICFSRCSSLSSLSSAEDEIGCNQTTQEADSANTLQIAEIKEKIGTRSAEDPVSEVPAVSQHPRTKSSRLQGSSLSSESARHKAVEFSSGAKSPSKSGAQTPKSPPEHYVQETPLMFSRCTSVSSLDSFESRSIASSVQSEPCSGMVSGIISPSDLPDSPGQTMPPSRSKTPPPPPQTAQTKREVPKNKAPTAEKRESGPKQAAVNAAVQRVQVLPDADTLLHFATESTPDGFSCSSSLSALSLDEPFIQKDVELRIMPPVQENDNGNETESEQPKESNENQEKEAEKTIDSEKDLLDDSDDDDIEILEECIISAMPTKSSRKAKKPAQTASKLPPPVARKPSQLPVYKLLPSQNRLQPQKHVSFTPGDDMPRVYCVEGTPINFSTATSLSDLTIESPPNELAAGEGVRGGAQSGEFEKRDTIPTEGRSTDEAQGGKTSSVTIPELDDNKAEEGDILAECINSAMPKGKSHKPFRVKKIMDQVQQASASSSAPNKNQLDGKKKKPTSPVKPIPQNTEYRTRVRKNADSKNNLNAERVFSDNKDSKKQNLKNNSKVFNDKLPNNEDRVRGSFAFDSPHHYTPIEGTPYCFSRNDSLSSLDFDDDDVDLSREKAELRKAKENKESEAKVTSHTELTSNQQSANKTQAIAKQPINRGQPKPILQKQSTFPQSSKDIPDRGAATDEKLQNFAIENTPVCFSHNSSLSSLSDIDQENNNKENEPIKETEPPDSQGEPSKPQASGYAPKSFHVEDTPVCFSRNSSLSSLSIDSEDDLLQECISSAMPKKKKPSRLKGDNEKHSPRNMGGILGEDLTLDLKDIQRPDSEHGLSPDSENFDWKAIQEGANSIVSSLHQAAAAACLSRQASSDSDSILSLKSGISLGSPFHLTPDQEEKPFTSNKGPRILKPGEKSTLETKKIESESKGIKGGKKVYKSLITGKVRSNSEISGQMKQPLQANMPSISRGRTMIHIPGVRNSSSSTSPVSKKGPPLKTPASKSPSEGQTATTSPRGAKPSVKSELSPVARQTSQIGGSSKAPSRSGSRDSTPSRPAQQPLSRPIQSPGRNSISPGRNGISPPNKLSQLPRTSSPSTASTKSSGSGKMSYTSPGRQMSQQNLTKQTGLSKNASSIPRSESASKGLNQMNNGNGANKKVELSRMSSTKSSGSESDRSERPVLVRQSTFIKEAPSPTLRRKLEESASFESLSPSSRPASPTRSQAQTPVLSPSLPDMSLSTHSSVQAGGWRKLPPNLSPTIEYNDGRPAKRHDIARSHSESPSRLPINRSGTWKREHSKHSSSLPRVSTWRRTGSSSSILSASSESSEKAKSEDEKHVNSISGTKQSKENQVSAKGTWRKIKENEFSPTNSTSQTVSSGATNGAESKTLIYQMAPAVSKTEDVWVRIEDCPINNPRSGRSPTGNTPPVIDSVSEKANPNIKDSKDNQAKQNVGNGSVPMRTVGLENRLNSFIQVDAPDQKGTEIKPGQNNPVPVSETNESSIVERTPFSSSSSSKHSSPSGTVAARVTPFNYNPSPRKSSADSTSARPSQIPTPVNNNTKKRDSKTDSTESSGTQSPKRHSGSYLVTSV

Chain of 3xFLAG-eGFP-Axin1 (O15169 whole entry): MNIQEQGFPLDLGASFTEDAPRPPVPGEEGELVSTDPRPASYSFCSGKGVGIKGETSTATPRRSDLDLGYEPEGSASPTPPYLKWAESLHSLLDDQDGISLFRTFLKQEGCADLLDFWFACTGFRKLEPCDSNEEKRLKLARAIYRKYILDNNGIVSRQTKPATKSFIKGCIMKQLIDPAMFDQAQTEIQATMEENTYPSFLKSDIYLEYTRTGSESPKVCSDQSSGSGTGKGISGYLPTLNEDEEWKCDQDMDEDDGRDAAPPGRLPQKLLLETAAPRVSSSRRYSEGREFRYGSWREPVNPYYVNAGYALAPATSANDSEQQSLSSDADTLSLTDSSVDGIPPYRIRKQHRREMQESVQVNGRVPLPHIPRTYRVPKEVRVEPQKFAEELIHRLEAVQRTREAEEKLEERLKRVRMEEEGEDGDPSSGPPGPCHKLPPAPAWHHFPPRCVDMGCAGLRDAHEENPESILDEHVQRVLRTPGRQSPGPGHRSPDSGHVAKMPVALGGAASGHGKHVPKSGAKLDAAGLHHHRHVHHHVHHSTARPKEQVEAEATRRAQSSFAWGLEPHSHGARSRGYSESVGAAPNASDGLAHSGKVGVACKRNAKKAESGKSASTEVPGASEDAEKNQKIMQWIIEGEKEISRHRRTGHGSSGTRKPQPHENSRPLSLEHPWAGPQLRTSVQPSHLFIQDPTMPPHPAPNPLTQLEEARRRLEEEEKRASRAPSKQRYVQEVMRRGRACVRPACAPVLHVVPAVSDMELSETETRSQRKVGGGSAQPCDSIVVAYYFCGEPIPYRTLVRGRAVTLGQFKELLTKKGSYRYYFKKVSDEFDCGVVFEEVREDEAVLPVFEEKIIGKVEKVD

B1: β-catenin (natural protein, human (endogenous in HEK293 and HeLa), UniProt P35222 1-781, looked up)
chain: MATQADLMELDMAMEPDRKAAVSHWQQQSYLDSGIHSGATTTAPSLSGKGNPEEEDVDTSQVLYEWEQGFSQSFTQEQVADIDGQYAMTRAQRVRAAMFPETLDEGMQIPSTQFDAAHPTNVQRLAEPSQMLKHAVVNLINYQDDAELATRAIPELTKLLNDEDQVVVNKAAVMVHQLSKKEASRHAIMRSPQMVSAIVRTMQNTNDVETARCTAGTLHNLSHHREGLLAIFKSGGIPALVKMLGSPVDSVLFYAITTLHNLLLHQEGAKMAVRLAGGLQKMVALLNKTNVKFLAITTDCLQILAYGNQESKLIILASGGPQALVNIMRTYTYEKLLWTTSRVLKVLSVCSSNKPAIVEAGGMQALGLHLTDPSQRLVQNCLWTLRNLSDAATKQEGMEGLLGTLVQLLGSDDINVVTCAAGILSNLTCNNYKNKMMVCQVGGIEALVRTVLRAGDREDITEPAICALRHLTSRHQEAEMAQNAVRLHYGLPVVVKLLHPPSHWPLIKATVGLIRNLALCPANHAPLREQGAIPRLVQLLVRAHQDTQRRTSMGGTQQQFVEGVRMEEIVEGCTGALHILARDVHNRIVIRGLNTIPLFVQLLYSPIENIQRVAAGVLCELAQDKEAAEAIEAEGATAPLTELLHSRNEGVATYAAAVLFRMSEDKPQDYKKRLSVELTSSLFRTEPMAWNETADLGLDIGAQGEPLGYRQDDPSYRSFHSGGYGQDALGMDPMMEHEMGGHHPGADYPVDGLPDLGHAQDLMDGLPPGDSNQLAWFDTDL
As for B1, the “fold decrease in binding after puromycin” value in the assay with 3xFLAG-eGFP-Axin1 is around 10 fold. Besides, in the assay with 3xFLAG-mScarlet-APC, the “fold reduction of the interaction after puromycin” value was around 4 fold.

B2: α-catenin (natural protein, human (endogenous in HEK293 and HeLa), UniProt P35221 1-906, looked up)
chain: MTAVHAGNINFKWDPKSLEIRTLAVERLLEPLVTQVTTLVNTNSKGPSNKKRGRSKKAHVLAASVEQATENFLEKGDKIAKESQFLKEELVAAVEDVRKQGDLMKAAAGEFADDPCSSVKRGNMVRAARALLSAVTRLLILADMADVYKLLVQLKVVEDGILKLRNAGNEQDLGIQYKALKPEVDKLNIMAAKRQQELKDVGHRDQMAAARGILQKNVPILYTASQACLQHPDVAAYKANRDLIYKQLQQAVTGISNAAQATASDDASQHQGGGGGELAYALNNFDKQIIVDPLSFSEERFRPSLEERLESIISGAALMADSSCTRDDRRERIVAECNAVRQALQDLLSEYMGNAGRKERSDALNSAIDKMTKKTRDLRRQLRKAVMDHVSDSFLETNVPLLVLIEAAKNGNEKEVKEYAQVFREHANKLIEVANLACSISNNEEGVKLVRMSASQLEALCPQVINAALALAAKPQSKLAQENMDLFKEQWEKQVRVLTDAVDDITSIDDFLAVSENHILEDVNKCVIALQEKDVDGLDRTAGAIRGRAARVIHVVTSEMDNYEPGVYTEKVLEATKLLSNTVMPRFTEQVEAAVEALSSDPAQPMDENEFIDASRLVYDGIRDIRKAVLMIRTPEELDDSDFETEDFDVRSRTSVQTEDDQLIAGQSARAIMAQLPQEQKAKIAEQVASFQEEKSKLDAEVSKWDDSGNDIIVLAKQMCMIMMEMTDFTRGKGPLKNTSDVISAAKKIAEAGSRMDKLGRTIADHCPDSACKQDLLAYLQRIALYCHQLNICSKVKAEVQNLGGELVVSGVDSAMSLIQAAKNLMNAVVQTVKASYVASTKYQKSQGMASLNLPAVSWKMKAPEKKPLVKREKQDETQTKIKRASQKKHVNPVQALSEFKAMDSI
In the case of B2, in the assay with 3xFLAG-eGFP-Axin1, the “fold decrease in binding after puromycin” value was around 10 fold.
